Reference: patent US20220119513A1 (ZOETIS SERVICES, published 2022)

T1: TGFβ2 (R&D Systems)
T1 sequence (P61812 303-414, species assumed, looked up): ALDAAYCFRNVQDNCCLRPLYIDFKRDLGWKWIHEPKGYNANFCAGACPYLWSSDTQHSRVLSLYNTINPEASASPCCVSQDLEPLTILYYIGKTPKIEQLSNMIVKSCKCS

T2: TGFβ3 (R&D Systems) (Homo sapiens (Human), UniProt P10600 301-412, Active TGFβ3 is a disulfide-linked homodimer of this chain; one copy is given.)
T2 sequence: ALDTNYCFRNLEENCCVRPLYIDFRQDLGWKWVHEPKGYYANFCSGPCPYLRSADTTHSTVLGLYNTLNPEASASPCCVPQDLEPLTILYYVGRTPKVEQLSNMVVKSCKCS


How the values were obtained:
TGFβ2 (R&D Systems) [1] = molecular target: T1, TGFβ2 (R&D Systems); experiment: cell-based or functional assay
TGFβ3 (R&D Systems) [2] = molecular target: T2, TGFβ3 (R&D Systems); experiment: cell-based or functional assay
TGFβ1 (R&D Systems) [3] = experiment: cell-based or functional assay
TGFβ2 (R&D Systems) [4] = molecular target: T1, TGFβ2 (R&D Systems); experiment: SPR full titration
TGFβ3 (R&D Systems) [5] = molecular target: T2, TGFβ3 (R&D Systems); experiment: SPR full titration
TGFβ1 (R&D Systems) [6] = molecular target: T3, TGFβ1 (R&D Systems); experiment: SPR full titration
T3 construct: also called TGFB1
T3 sequence (P01137 279-390): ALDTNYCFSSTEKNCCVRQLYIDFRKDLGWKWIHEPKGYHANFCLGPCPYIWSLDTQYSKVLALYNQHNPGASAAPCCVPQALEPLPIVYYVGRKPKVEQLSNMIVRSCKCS

Row | pSmad-3, IC50 (TGFβ2 (R&D Systems) [1]) | pSmad-3, IC50 (TGFβ3 (R&D Systems) [2]) | pSmad-3, IC50 (TGFβ1 (R&D Systems) [3]) | Kd (TGFβ2 (R&D Systems) [4]) | Kd (TGFβ3 (R&D Systems) [5]) | Kd (TGFβ1 (R&D Systems) [6]) | Binder
1 | 2.02 nM | 1.6 nM | 0.7 nM | 4.72 nM | 0.649 nM | 2.03 nM | affinity matured HcLb 257 (antibody, V domains shown, full IgG; also called canHcLb/55SW/100DY/30IM/31TK + canHcLb/237ND/242TS) VH: EVQLVQSGAEVKKPGASVKVSCKTSGYTFMKYWMNWVRQAPGAGLDWMGQIFPAWGSTNYNEMFEGRVTLTADTSTSTAYMELSSLRAGDIAVYYCARGYGNYALDAMDYWGQGTLVTVSS VL: DIVMTQTPPSLSVSPRETASISCRASESVDSYGNSFMHWYLQKPGQSPQLLIYLASNLESGVSDRFSGSGSGTDFTLRISRVEANDTGVYYCQQNDEDPLSFGQGTK
2 | 1.37 nM | 1.48 nM | 0.99 nM | 3.75 nM | 0.78 nM | 3.05 nM | affinity matured HcLb 259 (antibody, V domains shown, full IgG; constant regions not restated) VH: EVQLVQSGAEVKKPGASVKVSCKTSGYTFITYWMNWVRQAPGAGLDWMGQIFPAWGMTNYNEMFEGRVTLTADTSTSTAYMELSSLRAGDIAVYYCARGYGNYALDAMDYWGQGTLVTVSS VL: DIVMTQTPPSLSVSPRETASISCRASESVDSYGNSFMHWYLQKPGQSPQLLIYLASNLESGVSDRFSGSGSGTDFTLRISRVEANDTGVYYCQQNNEDPLTFGQ
3 | 0.79 nM | 1.09 nM | 0.61 nM | 4.4 nM | 8.6 nM | 3.81 nM | affinity matured HcLb 258 (antibody, V domains shown, full IgG; constant regions not restated) VH: EVQLVQSGAEVKKPGASVKVSCKTSGYTFMKYWMNWVRQAPGAGLDWMGQIFPAWGSTNYNEMFEGRVTLTADTSTSTAYMELSSLRAGDIAVYYCARGYGNYALDAMDYWGQGTLVTVSS VL: DIVMTQTPPSLSVSPRETASISCRASESVDSYGNSFMHWYLQKPGQSPQLLIYLASNLESGVSDRFSGSGSGTDFTLRISRVEANDTGVYYCQQNNEDPLTFGQ

Further lines, the binder ahead of its results:

Row | Binder | pSmad-3, IC50 (TGFβ2 (R&D Systems) [1]) | pSmad-3, IC50 (TGFβ3 (R&D Systems) [2]) | pSmad-3, IC50 (TGFβ1 (R&D Systems) [3]) | Kd (TGFβ2 (R&D Systems) [4]) | Kd (TGFβ3 (R&D Systems) [5]) | Kd (TGFβ1 (R&D Systems) [6])
4 | affinity matured HcLb 233 (antibody, V domains shown, full IgG; also called canHcLb/55SW/100DY/57/SM + canHcLb/237ND/242TS) VH: EVQLVQSGAEVKKPGASVKVSCKTSGYTFITYWMNWVRQAPGAGLDWMGQIFPAWGMTNYNEMFEGRVTLTADTSTSTAYMELSSLRAGDIAVYYCARGYGNYALDAMDYWGQGTLVTVSS VL: DIVMTQTPPSLSVSPRETASISCRASESVDSYGNSFMHWYLQKPGQSPQLLIYLASNLESGVSDRFSGSGSGTDFTLRISRVEANDTGVYYCQQNDEDPLSFGQGTK | 1.68 nM | 1.33 nM | 0.71 nM | 3.98 nM | 0.457 nM | 2.03 nM
5 | affinity matured HcLb 237 (antibody, V domains shown, full IgG; also called canHcLb/55SW/100DY/57/SV + canHcLb/237ND/242TS) VH: EVQLVQSGAEVKKPGASVKVSCKTSGYTFITYWMNWVRQAPGAGLDWMGQIFPAWGVTNYNEMFEGRVTLTADTSTSTAYMELSSLRAGDIAVYYCARGYGNYALDAMDYWGQGTLVTVSS VL: DIVMTQTPPSLSVSPRETASISCRASESVDSYGNSFMHWYLQKPGQSPQLLIYLASNLESGVSDRFSGSGSGTDFTLRISRVEANDTGVYYCQQNDEDPLSFGQGTK | 1.6 nM | 1.05 nM | 0.76 nM | 4.07 nM | 0.476 nM | 2.27 nM
6 | affinity matured HcLb 188 (antibody, V domains shown, full IgG; constant regions not restated) VH: EVQLVQSGAEVKKPGASVKVSCKTSGYTFITYWMNWVRQAPGAGLDWMGQIFPAWGSTNYNEMFEGRVTLTADTSTSTAYMELSSLRAGDIAVYYCARGYGNYALDAMDYWGQGTLVTVSS VL: DIVMTQTPPSLSVSPRETASISCRASESVDSYGNSFMHWYLQKPGQSPQLLIYLASNLESGVSDRFSGSGSGTDFTLRISRVEANDTGVYYCQQNNEDPLTFGQ | 2.29 nM | 1.46 nM | 2.73 nM | 0.937 nM | 0.417 nM | 3.96 nM
7 | affinity matured HcLb 239 (antibody, V domains shown, full IgG; also called canHcLb/55SW/100DY/31/TK + canHcLb/237ND/242TS) VH: EVQLVQSGAEVKKPGASVKVSCKTSGYTFIKYWMNWVRQAPGAGLDWMGQIFPAWGSTNYNEMFEGRVTLTADTSTSTAYMELSSLRAGDIAVYYCARGYGNYALDAMDYWGQGTLVTVSS VL: DIVMTQTPPSLSVSPRETASISCRASESVDSYGNSFMHWYLQKPGQSPQLLIYLASNLESGVSDRFSGSGSGTDFTLRISRVEANDTGVYYCQQNDEDPLSFGQGTK | 5.42 nM | 1.54 nM | 1.43 nM | 6.44 nM | 0.431 nM | 3.53 nM
